From PMC6281676 (Scientific Reports, 2018)

Experiments:
[1] = Appearance of mixed solution of peptide drug and penetratin; format: physicochemical; conditions: peptide drug 2.5 mg/mL plus L- or D-penetratin 2.0 mM in PBS pH 6.0 with 0.001% methylcellulose; visual
[2] = test system: hippocampal neuronal cells; assay: Immunohistological staining of brain specimens with anti-NeuN antibody (neuronal cell counts); format: in vivo, SAMP8 mice; conditions: after 30th intranasal administration of exendin-4 ± L-penetratin ± insulin; 38 weeks of age; n = 4–8
Protocol: At 15 min after administration, blood samples were taken from the left jugular vein. Immediately after blood withdrawal, the abdominal cavity was opened, and the intravascular content in the brain was flushed by perfusion of ice-cold PBS (pH 7.4) into the left ventricle of the heart at 5.5 mL/min for 5 min using a peristaltic pump (ATTO Corp.). Right afterwards, the brain was fixed by perfusion of ice-cold 4% PFA into the brain at 5.5 mL/min for 10 min. Subsequently, the whole brain was carefully isolated and washed with ice-cold PBS (pH 7.4) and weighed after removal of the water content.
The right side of the brain obtained as described above was immersed in 4% PFA for 24 h and then moved to ice-cold PBS (pH 7.4) and stored at 4 °C. After removing the PBS, the brain was trimmed coronally to obtain 3-mm slices at the position of Bregma −1.5 mm. […]
A thin slice at Bregma −2.0 mm was obtained and mounted on a glass slide, deparaffinized, and immersed in citrate buffer for 40 min in a water bath at 98 °C to activate the antigen. […] The stained brain tissue was observed by microscopy (Olympus BX51 and DP71), and the NeuN-positive cell numbers in the hippocampus were analyzed using WinROOF (Mitani Corp., Tokyo, Japan). […]

[3] = 15 min after 30th intranasal administration of exendin-4 1 mg/mL, L-penetratin 2 mM and insulin 8 IU/mL (1 IU/kg)
Protocol: (§1) Every morning at 10 AM, mice were anesthetized by an i.p. injection of sodium pentobarbital (50 mg/kg), and restrained in a supine position. […] The untreated control SAMP8 and SAMR1 received intranasal administration of only the vehicle (PBS pH 6.0). After each administration, mice were kept in a supine position for 15 min and then returned to their cages.

[4] = up to 60 min after 29th intranasal administration of exendin-4 and insulin with L-penetratin; tail vein, glucose meter
Protocol: as §1
Blood was obtained from the tail vein before and 15, 30, and 60 min after administration, and the blood glucose concentration was measured using a glucose meter (One Touch Ultra View, Johnson & Johnson K.K., Tokyo, Japan).

In the case of “HAEGTFTSDVSSYLEGQAAKEFIAWLVKGR-NH2 [GLP-1, glucagon-like peptide-1, incretin peptide, synthesized by Sigma-Genosys]”, the “appearance of solution after mixing” value [1] is reported as “clear”.
For “insulin: Recombinant human insulin (27.5 IU/mg), Wako”, the “NeuN-positive hippocampal neuronal cell counts” value [2] was “no proliferation effect”, the “insulin level in plasma” value ([3]; ELISA, mean ± SEM) was 41.1 ± 11.8 μU/mL and the “brain concentration of insulin” value ([3]; human insulin ultrasensitive ELISA) was “less than the lower detection limit”. For the same substance, the blood glucose level [4] was > 70 mg/dL.
